From publication PMC4841768

How the values were obtained:
[1] = FLAG immunofluorescence, MEFs day 6; conditions: glycan lost; control: OSFLAG-WTKM
[2] = immunofluorescence, mESCs; conditions: glycan lost; control: fSOX2-Tg mESCs
[3] = label-free LC-MS of TAD peptide; conditions: glycan lost; control: fSOX2-Tg mESCs
[4] = Western blot and immunostaining, transduced MEFs; conditions: glycan lost; control: OSFLAG-WTKM
[5] = Western blot, mESCs; conditions: glycan lost; control: fSOX2-Tg mESCs

SOX2: S248A, sequence (chain, as listed by the source S248A): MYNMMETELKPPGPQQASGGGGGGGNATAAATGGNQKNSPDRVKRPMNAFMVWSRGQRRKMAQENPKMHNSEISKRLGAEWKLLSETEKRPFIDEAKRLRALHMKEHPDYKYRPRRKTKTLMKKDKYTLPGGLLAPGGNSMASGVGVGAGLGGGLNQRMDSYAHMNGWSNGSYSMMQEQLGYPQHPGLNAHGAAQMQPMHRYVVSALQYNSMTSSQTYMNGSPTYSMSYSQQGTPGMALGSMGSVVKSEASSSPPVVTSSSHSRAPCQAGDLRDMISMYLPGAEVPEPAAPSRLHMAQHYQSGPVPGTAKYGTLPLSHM

With SOX2: S248A the localisation_or_trafficking [1] was “no change”, the localisation_or_trafficking [2] was “no change” and the “other: phosphorylation at S253, other: % of total TAD peptide” value [3] was “increases, 18.7 vs 10.9”. The expression_or_secretion [4] was “no change” and the expression_or_secretion [5] was “no change”.
